In patent US20150139990A1:

Experiments:
[1] = molecular target: human CD81 on CD81-expressing cells (Jurkat E6.1, human PBMC, Ramos) (human) (UniProt P60033); experiment: flow cytometry, human PBMC
[2] = molecular target: human CD81 on CD81-expressing cells (Jurkat E6.1, human PBMC, Ramos) (human) (UniProt P60033); experiment: flow cytometry, Jurkat E6.1 cells
[3] = molecular target: human CD81 on CD81-expressing cells (Jurkat E6.1, human PBMC, Ramos) (human) (UniProt P60033); experiment: flow cytometry, Ramos cells, 10 µg/mL
[4] = molecular target: human CD81 on CD81-expressing cells (Jurkat E6.1, human PBMC, Ramos) (human) (UniProt P60033); experiment: flow cytometry, Jurkat cells, 1 µg/mL
[5] = molecular target: human CD81 on CD81-expressing cells (Jurkat E6.1, human PBMC, Ramos) (human) (UniProt P60033); experiment: flow cytometry, Ramos cells, 0.1 µg/mL
[6] = molecular target: human CD81 on CD81-expressing cells (Jurkat E6.1, human PBMC, Ramos) (human) (UniProt P60033); experiment: flow cytometry, Ramos cells, 1 µg/mL
[7] = molecular target: human CD81 on CD81-expressing cells (Jurkat E6.1, human PBMC, Ramos) (human) (UniProt P60033); experiment: flow cytometry, Ramos cells, 0.01 µg/mL
[8] = molecular target: human CD81 on CD81-expressing cells (Jurkat E6.1, human PBMC, Ramos) (human) (UniProt P60033); experiment: flow cytometry, Jurkat cells, 0.01 µg/mL
[9] = molecular target: human CD81 on CD81-expressing cells (Jurkat E6.1, human PBMC, Ramos) (human) (UniProt P60033); experiment: flow cytometry, Jurkat cells, 0.1 µg/mL
[10] = molecular target: human CD81 on CD81-expressing cells (Jurkat E6.1, human PBMC, Ramos) (human) (UniProt P60033); experiment: flow cytometry, Jurkat cells, 10 µg/mL

human CD81 on CD81-expressing cells (Jurkat E6.1, human PBMC, Ramos) (human), sequence (P60033 whole entry): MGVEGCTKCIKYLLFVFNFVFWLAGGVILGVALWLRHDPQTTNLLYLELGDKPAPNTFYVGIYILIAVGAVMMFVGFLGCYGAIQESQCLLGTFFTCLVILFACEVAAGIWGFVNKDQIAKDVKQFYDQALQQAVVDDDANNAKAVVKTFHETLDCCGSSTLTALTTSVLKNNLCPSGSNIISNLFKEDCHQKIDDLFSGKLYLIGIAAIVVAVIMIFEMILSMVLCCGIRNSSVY

Substance	binding ratio to cells (%) [1] [%]	binding ratio to cells (%) [2] [%]	geometric mean FL2 [3]	geometric mean FL2 [4]	geometric mean FL2 [5]	geometric mean FL2 [6]	geometric mean FL2 [7]	geometric mean FL2 [8]	geometric mean FL2 [9]	geometric mean FL2 [10]
control human IgG4 (Acris) (antibody)	1	1								
control human IgG (AbD Serotec) (antibody)			8	4	4	5	4	4	4	8
